From patent US20020035246A1 (VLAAMS INTERUNIVERSITAIR INSTITUUT VOOR BIOTECHNOLOGIE VZW, published 2002) come the findings set out here.

T1: TH72 prey protein (GAL4TAD fused in-frame to a partial SMAD4 starting at amino acid 252) (mouse, UniProt P97471 252-551, limits assumed)
T1 construct: Only the start (aa 252) is stated; the C-terminal end of the clone is not; also called TH72 (DPC4 or SMAD4); partial DPC-4 (SMAD4)
T1 sequence (looked up): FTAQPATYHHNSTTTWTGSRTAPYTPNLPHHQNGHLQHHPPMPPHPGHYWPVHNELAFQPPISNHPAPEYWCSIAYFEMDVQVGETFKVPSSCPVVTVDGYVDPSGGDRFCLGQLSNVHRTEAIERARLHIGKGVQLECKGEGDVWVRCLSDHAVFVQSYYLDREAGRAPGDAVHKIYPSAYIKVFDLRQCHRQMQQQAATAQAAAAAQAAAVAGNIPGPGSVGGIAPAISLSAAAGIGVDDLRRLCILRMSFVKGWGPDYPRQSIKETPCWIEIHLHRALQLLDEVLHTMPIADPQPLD

T2: SIP1 (TH1) prey protein (GAL4TAD fused to the 626 aa polypeptide encoded by th1 cDNA) (mouse, UniProt Q9R0G7 315-940, limits assumed)
T2 sequence: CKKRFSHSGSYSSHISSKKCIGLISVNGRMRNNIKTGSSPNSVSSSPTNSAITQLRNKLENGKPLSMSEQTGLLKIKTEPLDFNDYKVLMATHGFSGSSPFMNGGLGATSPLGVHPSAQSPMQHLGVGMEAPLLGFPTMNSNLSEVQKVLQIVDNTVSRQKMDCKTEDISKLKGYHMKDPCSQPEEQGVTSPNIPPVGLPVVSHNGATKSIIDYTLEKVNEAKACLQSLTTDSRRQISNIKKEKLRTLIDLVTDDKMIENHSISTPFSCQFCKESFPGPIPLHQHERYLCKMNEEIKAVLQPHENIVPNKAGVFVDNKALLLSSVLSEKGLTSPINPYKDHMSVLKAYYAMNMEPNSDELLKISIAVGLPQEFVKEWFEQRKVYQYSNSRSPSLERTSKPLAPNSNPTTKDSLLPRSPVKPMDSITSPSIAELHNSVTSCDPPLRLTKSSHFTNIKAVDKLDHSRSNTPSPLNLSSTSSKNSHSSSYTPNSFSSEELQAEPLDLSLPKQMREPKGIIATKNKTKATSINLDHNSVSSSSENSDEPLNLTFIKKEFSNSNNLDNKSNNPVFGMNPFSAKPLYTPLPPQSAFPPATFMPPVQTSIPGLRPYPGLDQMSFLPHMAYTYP

B1: SIP7 prey protein (th74; partial open reading frame fused to the GAL4 transactivating domain in pACT2) (other, not shown: small tags and cut ends)
chain: TEPVRTDRRTEDQTATKERLLPPSGPLPRTPAPAPVTAPDTARCAVLAARHGRALSPGPRALAPSAQRCCPASGRAAETPASVGAGALRVGPAQPSQARQPTMLLLSPRSALVSVYCPQIFLLLSTAVTTLSSVVALGANIICNKIPGLAPRQRAICQSRPDAIIVIGEGAQMGIDECQHQFRFGRWNCSALGEKTVFGQELRVGSREAAFTYAITAAGVAHAVTAACSQGNLSNCGCDREKQGYYNQAEGWKWGGCSADVRYGIDFSRRFVDAREIKKNAGS
B2: Lamin (pLAM; Clontech) (other, UniProt P02545 66-230, looked up)
chain: SEEVVSREVSGIKAAYEAELGDARKTLDSVAKERARLQLELSKVREEFKELKARNTKKEGDLIAAQARLKDLEALLNSKEAALSTALSEKRTLEGELHDLRGQVAKLEAALGEAKKQLQDEMLRRVDAENRLQTMKEELDFQKNIYSEELRETKRRHETRLVEID
notes: Bought control bait plasmid

Holding throughout (experiment): yeast two-hybrid
In test [1] the target is B2.
Test [2] addresses T3, Empty bait vector pGBT9 (GAL-4 DBD alone) (UniProt P04386 1-147).
T3 construct: Negative control bait; also called empty bait (i.e., GAL-4 DBD alone)

For test [3], the target named is T1, TH72 prey protein (GAL4TAD fused …).
For test [4], the target named is T2, SIP1 (TH1) prey protein (GAL4TAD fused …).

T3 sequence (P04386 1-147 limits assumed): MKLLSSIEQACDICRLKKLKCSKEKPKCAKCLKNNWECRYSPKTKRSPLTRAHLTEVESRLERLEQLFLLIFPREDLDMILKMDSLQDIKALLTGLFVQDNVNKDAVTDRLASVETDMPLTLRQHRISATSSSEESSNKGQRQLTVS

For B1, the binding result in test [1] and in test [2] was “no binding” throughout.
As for B2, the binding result in test [3] and in test [4] was “no binding” in each case.
